Laboratory results reported in the DeepSol protein solubility set.

Assay: soluble on expression in E. coli; label from the status in PepcDB or PDB records

Row | Sequence | soluble on expression in E. coli
1 | MSLGQYDMQLIMGRTRWNGEFIGFERSTEKGVFSSNLKTEFMVELAESGGVGVFLNRRRVAALSLDGSRRALEAVLSCQKAFMTAQSDTRDEPSTDTKPKRHTKSSGTGFYVSDSGHIVTNHHVIAECSTINVLPPGGAAVSATLVAKDKTNDLAILKTASSPAAIPGLRSQMRLGEAVYVFGFPLTGILSTSGNFTAGAITATTGMEDDTRLAQISAPVQPGNSGGPLLDKYGNVIGVIVSKLNALNIAAATKDIPQNVNFAIKTGIATNFLDSSGVVPTGKVSTRELAPEAIADLAKIFTVQVLCNEGHHHHHH | not soluble
2 | MKPDSNGVYAYDMKISKKLTMAYKNDNPAKHATPVDYDYKTQTWSKREPNQLMDCFQNYSFNHISDPGDANRMEDVLVVDGLHKRVISINGDMPGAPVVVPYMSEVWIRVSNQILMDSMTIHVHGIDKHGMWYMDGVAFVQQCPIQSTNKFEYRFIADNKGTHWYHGHMQTDRGDGIAGGFIVVDQNDTSVPTLDDRKRIVPSREYFFLLQDWATKVGEEAWMQLEDKTMKWMYGYDDFTKCWEPTRTSDGGNVGGAVPISAILLNDKGWYDHDIIKSQPFNLPLERFQIKPNEDILFRIVNGGVAQELMLYVEGHPMTVVAADGDEVVPMKVDRLIVFPGERYDILIKGLATPTKKSYRIQVETVQKYFFDWKEIPIVYGFGYIEYETDGLPEDKTTPNLMHPECTQNKKCTVLNCPFQEWMAQPNFTCISYDKLENPNPEKIEAEILQATQFNGGFEEHFINMHHDSQMDQFLFQFPWGIPYYHDGDMETISTSCSQTACANNSMSDLDTTCRCFYHLEHKLNNIVQITLYNMGLGGAMGTGYAHPFHLHGHHFYVMKVGWPSYNGSGFIDQMNQDIDCPGRDVSCNGKKWRNKDWLGGALEAMNTKNPTKRDTITLPVGGYITIRFRAVNPGWWFAHCHLELHLMGGTGYAYKVGDQNQIYMPPDNFPHDCGVFKVDKLPELRLPTQKSSNIPYTFIAVCLVLIIDRIFH | not soluble
3 | MGSDKIHHHHHHMGMNQISQDQIGQARILVVGDMMLDRYWFGDVERISPEAPVPVVQIKRSDERLGGAANVARNSAALGAQVGMLGVVGDDEPGRTIESLLSACKVQPYLHRDASVNTTIKLRVLAHQQQLLRVDFENPPTHEVLLSVLEGFQELVKQYEVLVLSDYGKGGLTHVGRMVEAGRAAGRMVLVDPKGDDYSRYRGATLITPNRAEIRRVVGAWKSEQDLTARAQNLRRDLQLEALLLTRSEEGMTLYTEAEVLHVSAQAREVYDVSGAGDTVIATLATMLAAGVSLKQAVQFANRAGGIVVGKLGTAVVSYPELFGAAG | not soluble
4 | MIRELFEKEGFTLDEEQERKFSIYLQELLRWNKVHNLTSIKKPEEIVRRHFIDSVSVVRCFERIGLDLRGKHFADVGSGAGFPGVPLKIYLKDIKLTLIESVSKKCSFLEYLKIKLNEDYRVLCTRAEKVEEKFDVVLARALGEFEEVKEILEKLSIGYVFVYKGSKLKEEWLKDYKLCELSLSFMPKSYILWKKVLEHHHHHH | not soluble
5 | MTSAYFGVAGGSNTGAQSAYFGVGGGPAGGGGGASKVGGGAAPPPGTSVYMGAGGGGGGGGAQSAYFAVGGAPVGGAPAAVSIGAPPPAGGGGASTMTALGGAPSGASTMTAVGGAPRGASTMTAVGGVPSGASTMTAVGGAPTGASTMTAVGGAPTGASPMTAFGGAPTGASTMTAVGGAPTGASTMTAVGGAPTGASTMTAVGGAPTGASTMTAVGGAPTGASTMTAVGGVPTGASTMTAIGGAPSGASTMTAVGGAPRGASTMTAVGGAPTGASTMTAVGAAPGGASTMTAVGGAPRGASTMTAVGAPGGGASALGAAPPAGSMSGGGGGATSGYFGVGQGVMGGGGAVGQSAYFGVGGGAAGGAKTGGGGGGGIPGQSMYMGAGGGGGAGGGATSAYFAPK | not soluble
6 | MDGIRVYIETFGCTFNQADSEIMAGVLREEGAVLTGIDDADVIIINTCYVKHPTEHKVINRIKKIQETYPEKGLVVAGCMVEIDPSKLEAISGDASWLGPHQLRRAPQAVRAASNGLVERITGFTSDVKVKVPRVRSNPLIHIIPICEGCNGSCSYCCTRFARGRIQSYPSDLIISEAREAVASGCREIQLTAQDTAAYGVDTGEKLSDIIKGISGIPGNFRIRVGMMHPASVLRDLDGLVEAFKSEKVYSFLHLPVQSGSDSVLADMERGHTVDEFRMIVERFRSEIPDISIATDIIVGYPTEEREDFMDTCSLLEEVKPSFIHLSKYRHRPRARSSSLDEIDFRELRRRSRALEELKMRITEEENRRLVGSFQEILVVERGRKGGFIGRTGSYIPVVTETGEPGSFRRVRIRDATGTYLLADLEHHHHHH | soluble
7 | MSLVALTEDTQANANIGRLTVQTVEIADETTAIRCLDWDRERFDIEFGLRNGTTYNSFLIKGEKIALVDTSHRKFEKLYLEIVAGLIDPNTIDYLIVSHTEPDHSGLVKDILQLAPNITIVGAKVAIQFLENMVHQPFKSLQVKSGERLDLGNGHSLEFVSAPNLHWPDTILTYDHKTGILYTCDVFGMHYCDDQTYDENFFAIEEDFKYYYDCLMGPNARSVLAALKRIENLAIKTVATGHGPLLQVHISEWLGRYKNWSLEQAKTETLVALFYAEDYGYSEHLVHILGHGCTKTGVAVELIDLNTAEPQEVRELVTQASGLVIAMPSQYSLTAQAALNTILAAVHHKQAIGLLESGGGEDEPVFPLRNKFQELGLVEAFPPILIKEAPAQTTEQLCEEAGTDIGQWLTRDRTIKQIKSINTDLEKALGRISTGLYIITTKKGEIQGAMFASWVTQASLNPLGVAIAVSKERAIESLMQVGDHFVLNVLEEDNYQGLMKHFLKRFAPGADRFAGIKTYPATDGSPILAESLAYTECEITSRMDCGDHWIIYSTVHVGRVANVHAMTAVHHRKVGNHYEGHHHHHH | soluble
8 | MGNSYITKEDNQISATSEQTEDSACLSAMVLTTNLVYPAVLNAAIDLNLFEIIAKATPPGAFMSPSEIASKLPASTQHSDLPNRLDRMLRLLASYSVLTSTTRTIEDGGAERVYGLSMVGKYLVPDESRGYLASFTTFLCYPALLQVWMNFKEAVVDEDIDLFKNVHGVTKYEFMGKDKKMNQIFNKSMVDVCATEMKRMLEIYTGFEGISTLVDVGGGSGRNLELIISKYPLIKGINFDLPQVIENAPPLSGIEHVGGDMFASVPQGDAMILKAVCHNWSDEKCIEFLSNCHKALSPNGKVIIVEFILPEEPNTSEESKLVSTLDNLMFITVGGRERTEKQYEKLSKLSGFSKFQVACRAFNSLGVMEFYK | soluble
9 | MSLSENPGATAQILSYNHVLSQLNREKTDVTEAKSLLNTAETSLSSMSTSMNRVNALVLQAINGTSDKDNMSQSAEEIKGLLDVLISVANSEDDGRYVFSGSSTSVKPFTTDKTTGEIIYNGTTENKKFRVTDTLEVEVFHDGSAMTDVFNNIQKIVDAMKSGDKDALSALQETNSKNIEIITNSMTNIGGQKNGVTAYDNVLSSKIVDFSERKSNVEEVNMPEAVSNLNKTSIAYQAALQSSVMVQKLSILNYMEGHHHHHH | soluble
10 | MSQNDLNKEKALVVFSGGQDSTTCLFYAKKHFKEVELVTFNYGQRHDKEIEVAKKIAKEQNLKHHILDMSLLSQLTPNALTQHELSIEDNDDGIPNTFVPARNLLFLSFAGALAYQIHAKHIITGVCETDFSGYPDCRDSFIKSMNVTLSLSMDKDFVIHTPLMWLDKAQTWALSDKLGVLDYIRHNTLTCYNGIIGDGCGECPACHLRARGLKHYLEHKGEE | not soluble
11 | MAHHHHHHMATCTLSVARFGRPSTFAHRRVRWLPPYDGNSTCLDWWLPTDAEAADTAADGGAAAIRVRALAVILPGLTGSSKEFYVRRMARQLLRAHMATCVLTSRGVADTHLERPQIFSALFAKDLRHIMQACMTREKVQECLLRRISPLQSSDHHKGAVPIIGVAFSLGGRILTNYVSEQGEAEAPSGFDAVYTITSPHNVSDGAAALRMLLSKLLYGSTLYKRLRAYYERHKNVLQNLPDIDKKLLMDGDSPLVKRLRTVQDFGEFITGPHVGFPGAEAYYVAASSFRRLHHSRMPQVCVVVANDPIYGPPQPAPRWLHLIDMHCGGLVYVEMPVGGHLGFLGCPWSEWTQAPNEMEHLVLRSLIHFIKSADTQAAEAKTNE | soluble
12 | MGLKKCGLNLSRDNKELKPHGTIDFPCAGYSSCYRDSEDDIIPWHWHPELEILYIKSGNLKLKLPEKTFHLTPGDGFIVNSNVLHYAVAEPLCELHSIVFSPLLITGWEGSVFAEKYIGPLVRCPSFDGCSLNCLFPEPEMFENLFTAAFHALAEDLPGYEFTLREALSKLCYALCLRFGPETGDDCPAPSPDAERLRRMLDYIHCHYSEPLKLSQIAEAADIGERECLRCFSRMIQVSPIQYLLKYRVNQSASLLLREPGKNITAIAGGCGFDSPGNFSRIFKRYYKCSPKEYRSRNKE | soluble
13 | MSLNGGVTELSVWSGFTENDGKVVQSIADDFNKSQSNVKVTIEQNPWNVINDKLLSSISAGNGPDVVTYQPDGAKGFIKQGAIVSTDDFYSDSSNETSHYRKNVVKDGEVDGKHYGVPMGHAPYSVYFNKAIFDAAGITEDQYPKTWDDLAALASKLTVDKDGDGTPDQYGIALADKDAGYLPIFLQGAGTDLVVDGKANLTSKKSKDTLTWIRDNFYAKKSSPSNLSLVDAQTLFCSGKAAMFWIGPWIVNAAKEKGIETGTFEMPKGPEKQVTEVAANYWYTTSQVDGNDAKKKAAYAWMKFFNNKKNQITWAVKANYPPNRTDVTADDMKSNNFVSQISPYMDHSSLLLGSVPSGFADVQSELNALGPKISESTGDLTDILQKSNDKIQGYIEEGHHHHHH | soluble
14 | MSLKTIITNLKVYILKGPKEKRPHWVSNFIVPNANELLVILETNQGVEGFGLATSYTDMSPIVHVIESGISEKILGCNPLEPEMLYQSLFNLTASRLAYEKGWSREALIRVSAAVDIACWDIIGKISGLPLYQLFGGFRNKVPCYVTCAYYREGKDHAELKDEIQMLVDQGHQGFKAKVGGLSLAEDLERMELVREIIGPERDLMIDVNRAWDLKTAIEGARLLEPLKPTWLEEPVRWMDDRRELKILAQHTSIPLSGGESESTSYGCRTMIDEKAIQILQFDCTMFGGFTEGRKMTALCDLNHVDVAPHHDCFIHAPLVASSPAGRIVESFTDPERDPLQAELFENPPNIEKGWLTLNEAQGLGLTLSENALAKFGTQIIEGHHHHHH | soluble
15 | MSKVAMVTGGAQGIGRGISEKLAADGFDIAVADLPQQEEQAAETIKLIEAADQKAVFVGLDVTDKANFDSAIDEAAEKLGGFDVLVNNAGIAQIKPLLEVTEEDLKQIYSVNVFSVFFGIQAASRKFDELGVKGKIINAASIAAIQGFPILSAYSTTKFAVRGLTQAAAQELAPKGHTVNAYAPGIVGTGMWEQIDAELSKINGKPIGENFKEYSSSIALGRPSVPEDVAGLVSFLASENSNYVTGQVMLVDGGMLYN | soluble
16 | MVKIYLIEHVIGAVAYDENGNIVDYITNPRDLGKITEELLNNEKGIPFSATVELLKKVNPQEVVVENEAEVPKLQALGYRVSYEPYSKVSRIFRESLPKVAIDIKFASNEEDYYNFLHELSLEYTRRKLRSAAQKRDLLAIQAVRAMDDIDKTINLFSERLREWYSIHFPELDKLIEDHEEYATIVSRFGDRGFLTIDSLKELGFNEQRINRILDAAKKSIGADISEDDLSAMRMIANTILDLYNIRRNLNNYLEGVMKEVAPNVTALVGPALGARLLSIAGSLDELAKMPASTIQVLGAEKALFRALRSGGRPPKHGIIFQYPAIHTSPRWQRGKIARALAAKLAIAARVDAFSGRFIGDQLNEQLKKRIDEIKEKFAQHHHHHHHH | soluble
17 | GPGSMYQLWGGSPFKPHKQNPSIMIDKSGTEVRLIGESRDVLQTLATNPKWANTYLAISSTCDVPSWARELLGTFEFTDYAGKTVPMHSLFSDRIEIYKANKAKQHEMILQKVNKVDPSVSEYAQMLFFDNQTDNVRHVSGIGVTSCYCPSGMTKGTFEKGLEMWRRAAAVEDVRYDRVVECRA | not soluble
